According to patent US10280205B2, “Method for treating cancer with an activated T lymphocyte that selectively recognizes a cancer cell consisting of specific peptide” (immatics biotechnologies GmbH, priority 2015, dated 2019):

Biological target: HLA-A*02:01 (Homo sapiens, UniProt P04439, D140Y/D185E/D98H/E176V/E277Q/G131W/G231S/I119V/I121R/I166T/I218V/L300P/L318F/N151K/N90K/P208A/P217A/Q86G/Q94H/R138H/R169H/T345S)
Assay: MHC binding assay: UV-ligand exchange with beta2m ELISA (exchange yield)
Conditions: binding to HLA-A*02:01, β2m ELISA
Summary of the method: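 Exchange yield reflects how much β2m remains bound, measured by ELISA: streptavidin capture of 100-fold diluted monomers, HRP anti-β2m at 37° C. for 1 h, TMB read at 450 nm. Monomers come from UV cleavage of a conditional HLA-A*02:01 ligand in the presence of the candidate peptide.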

Row | Substance | Peptide exchange (MHC class I binding score, peptide exchange yield)
1 | 244 (SLFGGTEITI; listed as Homo sapiens) [compound 244] | “+++” (≥50 = +++)
2 | 245 (SMIDDLLGV; listed as Homo sapiens) [compound 245] | “+++” (≥50 = +++)
3 | 246 (LLWEVVSQL; listed as Homo sapiens) [compound 246] | “+++” (≥50 = +++)
4 | 248 (FLFPNQYVDV; listed as Homo sapiens) [compound 248] | “+++” (≥50 = +++)
5 | 249 (LLDGFLVNV; listed as Homo sapiens) [compound 249] | “+++” (≥50 = +++)
6 | 250 (ALSEEGLLVYL; listed as Homo sapiens) [compound 250] | “+++” (≥50 = +++)
7 | 251 (ALYTGFSILV; listed as Homo sapiens) [compound 251] | “++” (≥20% = ++)
8 | 252 (LLIGTDVSL; listed as Homo sapiens) [compound 252] | “+++” (≥50 = +++)
9 | 253 (GLDAATATV; listed as Homo sapiens) [compound 253] | “++” (≥20% = ++)
10 | 254 (TLLAFIMEL; listed as Homo sapiens) [compound 254] | “+++” (≥50 = +++)
11 | 255 (VLASYNLTV; listed as Homo sapiens) [compound 255] | “+++” (≥50 = +++)
12 | 256 (FLPPEHTIVYI; listed as Homo sapiens) [compound 256] | “+++” (≥50 = +++)
13 | 257 (SIFSAFLSV; listed as Homo sapiens) [compound 257] | “+++” (≥50 = +++)
14 | 258 (ELAERVPAI; listed as Homo sapiens) [compound 258] | “++” (≥20% = ++)
15 | 261 (YVLEFLEEI; listed as Homo sapiens) [compound 261] | “++” (≥20% = ++)
16 | 262 (LLWGDLIWL; listed as Homo sapiens) [compound 262] | “+++” (≥50 = +++)
17 | 263 (LLVSNLDFGV; listed as Homo sapiens) [compound 263] | “+++” (≥50 = +++)
18 | 264 (SLQEQLHSV; listed as Homo sapiens) [compound 264] | “+++” (≥50 = +++)
19 | 265 (LLFGGTKTV; listed as Homo sapiens) [compound 265] | “++” (≥20% = ++)
20 | 266 (KITDTLIHL; listed as Homo sapiens) [compound 266] | “+++” (≥50 = +++)
21 | 267 (ALQDFLLSV; listed as Homo sapiens) [compound 267] | “+++” (≥50 = +++)
22 | 269 (RVLEVGALQAV; listed as Homo sapiens) [compound 269] | “++” (≥20% = ++)
23 | 270 (LLLDEEGTFSL; listed as Homo sapiens) [compound 270] | “++” (≥20% = ++)
24 | 271 (LVYPLELYPA; listed as Homo sapiens) [compound 271] | “+++” (≥50 = +++)
25 | 272 (ALGNTVPAV; listed as Homo sapiens) [compound 272] | “+++” (≥50 = +++)
26 | 273 (NLFQSVREV; listed as Homo sapiens) [compound 273] | “++” (≥20% = ++)
27 | 274 (SLLFSLFEA; listed as Homo sapiens) [compound 274] | “++” (≥20% = ++)
28 | 275 (YLVYILNEL; listed as Homo sapiens) [compound 275] | “++” (≥20% = ++)
